Source: PMC10388152 (PNAS Nexus, 2023)

Biological target: the molecule itself
Assay: dynamic light scattering

B1: C-terminal truncated ScBfr (ScBfr 1-152: residues 153-167 removed) (domain or fragment, Streptomyces coelicolor, UniProt Q9S2N0 1-152, looked up)
chain: MQGDPEVIEFLNEQLTAELTAINQYFLHAKLQDHKGWTKLAKYTRAESFDEMRHAEVLTDRILLLDGLPNYQRLFHVRVGQSVTEMFQADREVELEAIDRLRRGIEVMRAKHDITSANVFEAILADEEHHIDYLETQLDLIEKLGESLYLST
  stoichiometry N: 24
